The values below come from publication doi:10.1101/2020.09.13.295345 (bioRxiv, 2020).

The series deals with the molecule itself. Kind of series: native gel or EMSA. In general terms: Mobility shift assays separate free from complexed probe on a gel.

B1: Thermus thermophilus ClpB, full-length (natural protein)
chain: not shown
For the protein B1, the binding result is recorded as “binds”.

B2: ΔNClpB, Thermus thermophilus ClpB lacking the N-terminal domain (domain or fragment)
chain: not shown
Consider B2, for which the binding result is listed as “binds”.
